Experimental findings from patent publication US20200347151A1 (CRAGE MEDICAL, published 2020) are described below.

For test [1], the target named is T1, human FAPα_His (human, UniProt Q12884 26-760).
T1 construct: Fusion protein expressed in 293F cells and purified on a nickel column; also called huFAP; recombinant huFAPα
The test can be described thus: Biacore, scFv; 8E3, human FAPα.

Test [2] concerns the target T2, mouse FAPα_His (mouse, UniProt P97321 26-761).
T2 construct: Fusion protein expressed in 293F cells and purified on a nickel column; also called mFAP
The test can be described thus: Biacore, scFv; 8E3, murine FAP.

The target of test [3] is T1, human FAPα_His. The test is described as follows: Biacore, scFv; reference is parent antibody 10A4.

T1 sequence (Q12884 other isoform, or with tags, fused parts or gaps limits assumed): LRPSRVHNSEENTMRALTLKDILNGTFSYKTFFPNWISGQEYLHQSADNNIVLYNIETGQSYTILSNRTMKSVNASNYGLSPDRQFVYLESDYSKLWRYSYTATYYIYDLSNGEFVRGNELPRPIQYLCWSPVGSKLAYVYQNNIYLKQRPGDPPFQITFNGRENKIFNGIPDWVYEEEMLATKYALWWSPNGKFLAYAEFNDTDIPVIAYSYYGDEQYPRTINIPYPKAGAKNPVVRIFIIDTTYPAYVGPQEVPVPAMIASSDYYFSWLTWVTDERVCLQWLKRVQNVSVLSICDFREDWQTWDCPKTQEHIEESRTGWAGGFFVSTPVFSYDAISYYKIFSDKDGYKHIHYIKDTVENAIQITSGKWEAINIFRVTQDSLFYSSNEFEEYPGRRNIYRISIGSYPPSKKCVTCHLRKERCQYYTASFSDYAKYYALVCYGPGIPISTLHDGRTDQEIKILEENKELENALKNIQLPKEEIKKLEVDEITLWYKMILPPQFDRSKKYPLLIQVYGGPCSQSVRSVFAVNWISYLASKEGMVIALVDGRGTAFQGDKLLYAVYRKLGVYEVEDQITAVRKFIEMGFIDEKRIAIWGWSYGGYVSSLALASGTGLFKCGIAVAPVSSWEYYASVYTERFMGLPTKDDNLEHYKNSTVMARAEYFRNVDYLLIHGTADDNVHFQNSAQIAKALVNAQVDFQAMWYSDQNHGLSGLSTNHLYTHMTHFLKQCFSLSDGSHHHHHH
T2 sequence (P97321 other isoform, or with tags, fused parts or gaps limits assumed): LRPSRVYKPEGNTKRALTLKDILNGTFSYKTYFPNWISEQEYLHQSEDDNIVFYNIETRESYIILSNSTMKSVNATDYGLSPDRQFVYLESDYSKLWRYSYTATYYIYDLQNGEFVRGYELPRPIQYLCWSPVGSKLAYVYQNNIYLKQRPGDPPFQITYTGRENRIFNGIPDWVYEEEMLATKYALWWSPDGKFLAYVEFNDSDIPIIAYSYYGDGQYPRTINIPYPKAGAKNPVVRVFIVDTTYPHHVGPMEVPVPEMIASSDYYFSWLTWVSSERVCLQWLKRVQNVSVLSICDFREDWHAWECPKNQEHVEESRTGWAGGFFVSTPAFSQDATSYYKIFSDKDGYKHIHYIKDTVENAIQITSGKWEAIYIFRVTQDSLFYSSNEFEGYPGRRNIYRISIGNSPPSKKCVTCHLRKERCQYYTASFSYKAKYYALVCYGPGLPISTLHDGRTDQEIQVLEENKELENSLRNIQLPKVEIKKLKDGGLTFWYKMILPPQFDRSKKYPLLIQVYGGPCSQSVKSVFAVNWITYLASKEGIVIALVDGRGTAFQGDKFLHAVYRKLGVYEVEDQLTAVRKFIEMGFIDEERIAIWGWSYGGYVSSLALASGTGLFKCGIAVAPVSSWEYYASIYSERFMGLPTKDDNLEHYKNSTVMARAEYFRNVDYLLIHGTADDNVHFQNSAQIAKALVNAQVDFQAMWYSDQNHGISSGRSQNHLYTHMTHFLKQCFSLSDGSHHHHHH

B1: antibody 8E3 (scFv), affinity-matured from 10A4 (scFv)
scFv: QVQLVQSGAEVKKPGSSVKVSCKASGGTFSSYAISWVRQAPGQGLEWMGGIIPIFGTANYAQKFQGRVTITADKSTSTAYMELSSLRSEDTAVYYCARDAADRDYWGQGTTVTVSSGGGGSGGGGSGGGGSDIVMTQSPLSLPVTPGEPASISCRSSQSLLHPNGFNHLYWYLQKPGQSPQLLIYVGGNRASGVPDRFSGSGSGTDFTLKISRVEAEDVGVYYCQQRNNKNRTFGQGTKVEIKR
notes: also called hu8E3
On to B1, for which the Kd in test [1] was determined as 81.6 nM; in test [2] it was 267 nM. Besides, the “fold affinity against 10A4” value in test [3] came out at 2.4 times.
